Measured values from US20200299367A1 (ARIZONA BOARD OF REGENTS ON BEHALF OF ARIZONA STATE …, published 2020).

B1: F9T scFv (scFv)
scFv: QVQLQESGGGVVQPGRSLRLSCAASGFTFSTSGMHWVRQAPGKGLEWVAFILHDGSDKYYADSVKGRFTISRDNSKNTLYLQMNSLRAEDTAIYYCAKSQRELLGAEYLQNWGQGTLVTVSSGGGGSGGGGSGGGGSQSALTQPASVSGSPGQSITISCTGTSSDVGGYKYVSWYQQHPGKAPKVMIYDVSNRPSGVSNRFSGSKSGNTASLTISGLQAEDEADYYCSSYTSSSTLVFGGGTKVTVLGAAAHHHHHHGAAEQKLISEED
notes: Expressed from pIT2 with a hexahistidine tag and a c-myc tag; the format is named under assay; also called F9T nanobody; F9 (clone before frame-shift repair)
B2: D4G scFv (scFv)
scFv: QVQLVASGGDLIQPGGSLRLSCAASGFTFNNYWMTWVRQAPGKGLEWVANIKQDGGEKYYVDSVKGRFTISRDNAKTSLYLQMNSLRAEDTAVYYCAKESYSTGWFDHWGQGTLVTVSSGGGGSGGGGSGGGGSNFMLTQDPAVSVALGQTVRITCQGDSLRKYYTSWYQQKPGQAPLLVMYAKNNRPSGIPDRFSGSSSGNTASLTITGAQAEDEADYYCDSRDSSGDHWVFGGGTKLTVLGAAAEQKLISEEDLNGAA
notes: also called D4 (clone before frame-shift repair)
B3: G12C scFv (scFv)
scFv: RVQLVESGAEVTKPGASVRVSCKASGYTFSRYDINWVRQASGQGLEWMGWINPNSGNTGYAQKFQGRVTMTRNISITTAYMELSSLRSEDTAVYYCARGLPEFDPWGQGTLVTVSSGGGGSGGGGSGGGGSHVILTQDPAVSVALGQTVRITCQGDSLRSYYASWYQQKPGQAPVLVIYGKNNRPSGIPDRFSGSSSGNTASLTITGAQAEDEADFYCNSRDSSGTHLEVFGGGTKVTVLGAAAEQKLISEEDLNGAA
notes: also called G12 (clone before frame-shift repair)

The binders below were run against T1, bovine serum albumin (bovine, UniProt P02769 25-607) (assay: AFM single clone screening, phage on mica coated with antigen).
T1 construct: also called BSA
T1 sequence (P02769 25-607 limits assumed): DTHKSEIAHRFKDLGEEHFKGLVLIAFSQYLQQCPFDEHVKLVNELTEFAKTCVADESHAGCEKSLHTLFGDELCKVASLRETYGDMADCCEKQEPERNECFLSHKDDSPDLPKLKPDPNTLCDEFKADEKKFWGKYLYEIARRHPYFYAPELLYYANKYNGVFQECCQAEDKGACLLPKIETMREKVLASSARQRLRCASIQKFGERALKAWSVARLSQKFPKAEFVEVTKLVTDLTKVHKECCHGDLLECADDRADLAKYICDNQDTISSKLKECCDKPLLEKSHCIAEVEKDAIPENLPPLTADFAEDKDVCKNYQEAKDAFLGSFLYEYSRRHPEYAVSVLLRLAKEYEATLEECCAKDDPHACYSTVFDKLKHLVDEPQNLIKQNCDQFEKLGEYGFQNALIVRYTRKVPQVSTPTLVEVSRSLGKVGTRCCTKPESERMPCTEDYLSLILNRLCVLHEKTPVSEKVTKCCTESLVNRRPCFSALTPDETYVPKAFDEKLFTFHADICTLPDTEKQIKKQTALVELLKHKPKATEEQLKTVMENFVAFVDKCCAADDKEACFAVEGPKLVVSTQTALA

Binding result, no binding:
B1
B2
B3
